Here are results for one molecule from patent publication US20110143428A1 (Genentech, published 2011).

The target of this assay is T1, hVEGF-C (human, UniProt P49767).
T1 construct: unlabelled; also called human VEGF-C
T1 sequence (VEGF-C, looked up): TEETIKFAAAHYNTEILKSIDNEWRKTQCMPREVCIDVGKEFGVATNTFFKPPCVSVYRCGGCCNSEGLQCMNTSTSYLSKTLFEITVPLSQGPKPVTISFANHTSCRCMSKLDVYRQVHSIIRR
In words: phage competition ELISA: phage-displayed clone incubated with increasing soluble hVEGF-C, unbound phage captured on hVEGF-C coated plate, anti-M13-HRP, OD450.

B1: VC1.1 (antibody, V domains shown)
VH: EVQLVESGGGLVQPGGSLRLSCAASGFTFSDSDIHWVRQAPGKGLEWVAWISPYSGYTDYADSVKGRFTISADTSKNTAYLQMNSLRAEDTAVYYCARLFKVIFDYWGQGTLVTVSS
VL: DIQMTQSPSSLSASVGDRVTITCRASQDVSTAVAWYQQKPGKAPKLLIYSASFLYSGVPSRFSGSGSGTDFTLTISSLQPEDFATYYCQQSYTTPPTFGQGTKVEIK
notes: also called clone VC1.1
Molecule B1 yielded an IC50 of 41.5 nM.
